The values that follow come from patent publication US20060240015A1 (Kyowa Kirin, published 2006).

The labels stand for the following.
B1: anti-hIGF CDR-grafted antibody CamHV0/LV0 (antibody, human IgG1, V domains shown)
VH: QVQLVESGGGVVQPGRSLRLSCAASGFTFSNYYMTWVRQAPGKGLEWVAYISSGGGSTYYRDSVKGRFTISRDNSKNTLYLQMNSLRAEDTAVYYCAREDYGYWFAYWGQGTLVTVSS
VL: DIVMTQSPDSLAVSLGERATINCRASSSVSYMHWYQQKPGQPPKLLIYGTSKLASGVPDRFSGSGSGTDFTLTISSLQAEDVAVYYCLQRSSYPPTFGQGTKVEIK
notes: Human IgG1, kappa (pKANTEX93); also called CmaHV0/LV0
B2: anti-hIGF CDR-grafted antibody QGAR/LV0 (antibody, human IgG1, V domains shown)
VH: B1 VH with Q1E, G42T, A97T, R98T
VL: B1 VL
notes: Human IgG1, kappa (pKANTEX93)
B3: anti-hIGF CDR-grafted antibody CamHV0/NYPLL3A11 (antibody, human IgG1, V domains shown)
VH: B1 VH
VL: B1 VL with N22T, Y35F, P42S, L45P, L46W, D69S, F70Y, T71S, V82A, V84T
B4: anti-hIGF CDR-grafted antibody QGAR/NYPLL3A11 (antibody, V domains shown)
VH: B1 VH with Q1E, G42T, A97T, R98T
VL: B1 VL with N22T, Y35F, P42S, L45P, L46W, D69S, F70Y, T71S, V82A, V84T
notes: Human IgG1, kappa (pKANTEX93)
B5: anti-hIGF CDR-grafted antibody QAR/LV0 (antibody, human IgG1, V domains shown)
VH: B1 VH with Q1E, A97T, R98T
VL: B1 VL
notes: Human IgG1, kappa (pKANTEX93); also called QAV/LV0
B6: anti-hIGF CDR-grafted antibody QGAR/PLLDFT (antibody, human IgG1, V domains shown)
VH: B1 VH with Q1E, G42T, A97T, R98T
VL: B1 VL with P42S, L45P, L46W, D69S, F70Y, T71S
notes: Human IgG1, kappa (pKANTEX93)
B7: anti-hIGF CDR-grafted antibody QGAR/PLDFT (antibody, human IgG1, V domains shown)
VH: B1 VH with Q1E, G42T, A97T, R98T
VL: B1 VL with P42S, L45P, D69S, F70Y, T71S
notes: Human IgG1, kappa (pKANTEX93)
B8: anti-hIGF human chimeric antibody KM3002 (antibody, human IgG1, V domains shown)
VH: EVHLVESGGGLVQPGRSLKLSCAASGFTFSNYYMTWVRQAPTKGLEWVAYISSGGGSTYYRDSVKGRFTISRDNAKSTLYLQMDSLRSEDTATYYCTTEDYGYWFAYWGQGTLVTVSS
VL: EIVLTQSPTTMAASPGEKVTITCRASSSVSYMHWFQQKSGTSPKPWIYGTSKLASGVPDRFSGSGSGTSYSLTISSMEAEDAATYYCLQRSSYPPTFGAGTKLELK
notes: V regions of KM1468 on human IgG1, kappa constant regions (vector pKANTEX93); also called anti-hIGF chimeric antibody KM3002

Where a chain is given by its changes, count along the chain named.

T1 sequence (P05019 49-118): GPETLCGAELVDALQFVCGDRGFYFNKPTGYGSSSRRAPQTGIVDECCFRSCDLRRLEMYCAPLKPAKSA

The first assay addresses T1, human insulin-like growth factor-I (human, UniProt P05019 49-118).
T1 construct: mature; In the ELISAs it was coated as a conjugate with methylated BSA; in Biacore it was amine-coupled to a CM-5 chip; also called hIGF-I; IGF-I
Put plainly: SPR (Biacore 2000). (In general: In SPR one partner is held on a chip, and binding of the other changes the refractive index at the surface.)
For the molecule B1, the “KA relative to KM3002 (fold)” value is about 0.059 fold.

As for B2, the “KA relative to CamHV0/LV0 (fold)” value is about 5 fold.

For B3, the “KA relative to CamHV0/LV0 (fold)” value was about 8 fold.

As to B4, the “KA relative to CamHV0/LV0 (fold)” value was about 14 fold.

A further assay deals with T2, human insulin-like growth factor-II (human, UniProt P01344 25-91).
T2 construct: also called hIGF-II; IGF-II
T2 sequence (P01344 25-91 limits assumed): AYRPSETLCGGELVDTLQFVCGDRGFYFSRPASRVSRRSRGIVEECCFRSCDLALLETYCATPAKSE
Put plainly: SPR (Biacore 2000).
Take B1: the “KA relative to KM3002 (fold)” value was about 0.167 fold.

Take B2: the “KA relative to CamHV0/LV0 (fold)” value is about 5 fold.

Regarding B3, the “KA relative to CamHV0/LV0 (fold)” value is about 5 fold.

On to B4, for which the “KA relative to CamHV0/LV0 (fold)” value was about 10 fold.

In another assay the target is T1, human insulin-like growth factor-I. The assay is described as follows: SPR (Biacore 2000), hIGF-I amine-coupled on CM-5, antibody as analyte, 25 C. As to the method:
(§1) For diluting samples and as reaction buffers in measurement, HBS-EP (10 mM HEPES, 150 mM NaCl, 3 mM EDTA, 0.005% Tween 20 pH 7.4) (manufactured by Biacore) was used.
(§2) Using an amine coupling kit (manufactured by Biacore), recombinant hIGF-I (manufactured by Fujisawa Pharmaceutical Co., Ltd.) and hIGF-II (manufactured by R & D) were immobilized at 18.5 pg/mm² or 26.7 pg/mm², respectively, on sensor tip CM-5 (manufactured by Biacore). After various antibodies which were diluted 5 steps in 2-fold serial dilutions as analytes added at a flow of 5 μl/minute for 4 minutes to observe a binding reaction, the dissociation reaction was subsequently observed over 5 minutes. After the dissociation reaction, 5 μl of 30 mM hydrochloric acid was added once, to regenerate the sensor chip surface. The reaction was done at 25° C. Based on the reaction curves at various concentrations, the binding constant Kass and dissociation constant Kdiss were calculated, to calculate the binding constants KA (M⁻¹) of these various antibodies.
B1 yielded a Ka of 1.7e+08 M⁻¹.

For B2, the Ka came out at 7.8e+08 M⁻¹.

B3 showed a Ka of 1.32e+09 M⁻¹.

In turn, B5 gave a Ka of 1.7e+08 M⁻¹.

Molecule B6 came in with a Ka of 2.78e+09 M⁻¹.

B7 gave a Ka of 2.31e+09 M⁻¹.

Molecule B8 gave a Ka of 2.94e+09 M⁻¹.

In the case of B4, the Ka was 2.32e+09 M⁻¹.

For another assay, the target named is T2, human insulin-like growth factor-II. The assay is described as follows: SPR (Biacore 2000), hIGF-II amine-coupled on CM-5, antibody as analyte, 25 C. As for the experimental part:
as §1, §2
For the molecule B1, the Ka worked out at 3.9e+08 M⁻¹.

With B2, the Ka is 1.75e+09 M⁻¹.

Regarding B3, the Ka was found to be 2.1e+09 M⁻¹.

B5 yielded a Ka of 4.5e+08 M⁻¹.

In the case of B6, the Ka was 3.52e+09 M⁻¹.

In the case of B7, the Ka was determined as 4.02e+09 M⁻¹.

B8 registered a Ka of 2.24e+09 M⁻¹.

On to B4, for which the Ka was 3.96e+09 M⁻¹.

The target of a further assay is T1, human insulin-like growth factor-I. Put plainly: binding ELISA on coated mBSA-hIGF-I. As to the method:
A conjugate of hIGF-I (manufactured by Fujisawa Co., Ltd.) with methylated BSA (manufactured by SIGMA) was prepared and used as an antigen to be immobilized on an ELISA plate. That is, methylated BSA dissolved in distilled water was mixed with hIGF to a ratio of methylated BSA:hIGF-I=1:8 (weight ratio) at 4° C. The resulting mixture was agitated with a vortex mixer for 10 seconds, to obtain a conjugate of hIGF-I with methylated BSA (hereinafter referred to as mBSA-hIGF-I).
The above mBSA-hIGF-I was dispensed at 50 μl/well on a 96-well ELISA plate (manufactured by Greiner) to give a hIGF-I concentration of 20 ng/ml and then left overnight at 4° C. for immobilization. After washing with PBS, PBS containing 1% BSA (hereinafter referred to as BSA-PBS) was dispensed in 100 μl/well to react at room temperature for 1 hour to carry out blocking of the remaining active groups. Discarding BSA-PBS, the culture supernatant of each of the various transformants or each of various purified hIGF CDR-grafted antibodies was dispensed at 50 μl/well to react at room temperature for 2 hours. After the reaction, each well was washed with PBS containing 0.05% Tween 20 (hereinafter referred to as Tween-PBS). Then, HRP-labeled anti-human IgG antibody (manufactured by American Qualex) in 2000-fold dilution was dispensed at 50 μl/well as a secondary antibody to react at room temperature for 1 hour.
In general terms: ELISA stands for enzyme-linked immunosorbent assay.
On to B1, for which the “binding activity relative to KM3002 (fold)” value is about 0.02 fold.

As to B2, the “binding activity relative to CamHV0/LV0 (fold)” value was about 25 fold and the “binding activity relative to KM3002 (fold)” value was about 0.5 fold.

Take B3: the “binding activity relative to CamHV0/LV0 (fold)” value was about 25 fold and the “binding activity relative to KM3002 (fold)” value is about 0.5 fold.
